Paper PMC6450106

Molecular target: CAP256 gp140-FL-IP (soluble Env) (HIV-1 (CAP256 SU, subtype C))
Experiment: native gel or EMSA; NativePAGE Novex 3 to 12% bis-Tris gels, Coomassie stain or anti-gp120 blot, molecular weight against NativeMark standard; protein after GNL affinity and SEC (Superdex 200 HiLoad 16/600)

Q: “CAP256 gp140-FL-IP (soluble Env) (domain or fragment)” was tested. Which stoichiometry N did it give?
A: 3
